Results from patent publication US20200369752A1 (published 2020).

B1: Syn7031.50.32 (antibody, V domains shown)
VH: EVQLVETGGGLVQPKGSLKLSCAASGFTFNTNAMNWVRQAPGKGLEWVVRIRTKSNNYATYYADSVKDRFTISRDDSQSMLYLQMNNLKTEDTAMYYCVRGGTGTGAMDYWGQGTSVTVSS
VL: DVVMTQTPLSLPVSLGDQASISCRSSQSLVHSNGNTYLHWCLQKPGQSPKLLIYKVSNRFSGVPDRFSGSGSGTDFTLKISRVEAEDLGVYFCSQSTHVPLTFGAGTKLELK
B2: Syn7012.15.32 (antibody, V domains shown)
VH: EVQLVETGGGLVQPKGSLKLSCAASGFTFNTNAMNWVRQAPGKGLEWVVRIRTKSNNYATYYADSVKDRFTISRDDSQSMLYLQMNNLKTEDTAMYYCVRGGTGTGAMDYWGQGTSVTVSS
VL: NIMMTQSPSSLAVSAGEKVTMSCKSSQSVLYSSNQKNYLAWYQQKPGQSPKLLIYWASTRESGVPDRFTGSGSGTDFTLTISSVQAEDLAVYYCHQYLSSYTFGGGTKLEIK
B3: Syn7009.32.40 (antibody, V domains shown)
VH: EVQLVETGGGLVQPKGSLKLSCAASGFTFNTNAMNWVRQAPGKGLEWVVRIRTKSNNYATYYADSVKDRFTISRDDSQSMLYLQMNNLKTEDTAMYYCVRGGTGTGAMDYWGQGTSVTVSS
VL: DVVMTQTPLSLPVSLGDQASISCRSSQSLVHSNGNTYLHWCLQKPGQSPKLLIYKVSNRFSGVPDRFSGSGSGTDFTLKISRVEAEDLGVYFCSQSTHVPLTFGAGTKLELK

Assays:
[1] = molecular target: human monomeric α-Synuclein (UniProt P37840 1-140); test: sandwich ELISA
[2] = molecular target: human fibrillar (PFF) α-Synuclein (UniProt P37840 1-140); test: sandwich ELISA

Binder	EC50 [1] [nM]	EC50 [2] [nM]
B1	567	8.86
B2	555	10.6
B3	947	10.1
